In patent publication US20240252614A1 (Pfizer, published 2024):

How the values were obtained:
hMPV097 = target: T1, hMPV097 (hMPV A, UniProt Q6WB98 19-102); test: BLI, 58C stress
T1 construct: T411C-Q434C, E146C-T160C, A459P, G239A, T49I, S149T, T365I
Protocol: (§1) The OCTET HTX (Sartorius, Gottingen, Germany) instrument was used to evaluate the expression and conformational integrity for each mutant. All measurements were conducted at 30° C. temperature in 96-well black plates (Corning, Corning, NY) with a final volume of 240 μL per well at a constant agitation rate of 1000 RPM.
(§2) Conformation integrity of hMPV A F protein mutants were evaluated by thermal stress experiments. Crude cell culture supernatants were normalized based on the results of the titer quantitation and then incubated for 1 hour at room temperature and two higher temperatures. […] Anti-Human IgG Fc Capture (AHC) biosensors were first equilibrated in PB before being dipped into more PB to establish the initial baseline. […] The mAb-bound biosensors were then dipped into the thermal stressed cell culture supernatants for 5 minutes. The kinetics analysis was done by OCTET data analysis software (version 12.0, Sartorius) based on curve fitting of the entire associate step.

hMPV086 = target: T2, hMPV086 (hMPV A, UniProt Q6WB98 19-102); test: BLI, 58C stress
T2 construct: T411C-Q434C, L141C-A161C, T49I; also called hMP0086
Protocol: as §1, §2

hMPV082 = target: T3, hMPV082 (hMPV A, UniProt Q6WB98 19-102); test: BLI, 58C stress
T3 construct: T411C-Q434C, A140C-S149C, G239A
Protocol: as §1, §2

hMPV087 = target: T4, hMPV087 (hMPV A, UniProt Q6WB98 19-102); test: BLI, 58C stress
T4 construct: T411C-Q434C, L141C-A161C, T365I
Protocol: as §1, §2

hMPV078 = target: T5, hMPV078 (hMPV A, UniProt Q6WB98 19-102); test: BLI, 58C stress
T5 construct: T411C-Q434C, A140C-S149C
Protocol: as §1, §2

hMPV A F WT Control [1] = target: T6, hMPV A F WT Control (hMPV A, UniProt Q6WB98 19-102); test: BLI, 58C stress
Protocol: as §1, §2

hMPV083 = target: T7, hMPV083 (hMPV A, UniProt Q6WB98 19-102); test: BLI, 58C stress
T7 construct: T411C-Q434C, A140C-S149C, A459P, G239A, T49I, T365I
Protocol: as §1, §2

hMPV090 = target: T8, hMPV090 (hMPV A, UniProt Q6WB98 19-102); test: BLI, 58C stress
T8 construct: T411C-Q434C, L141C-A161C, A459P, G239A, T49I, S149T, T365I
Protocol: as §1, §2

hMPV085 = target: T9, hMPV085 (hMPV A, UniProt Q6WB98 19-102); test: BLI, 58C stress
T9 construct: T411C-Q434C, L141C-A161C, A459P
Protocol: as §1, §2

hMPV081 = target: T10, hMPV081 (hMPV A, UniProt Q6WB98 19-102); test: BLI, 58C stress
T10 construct: T411C-Q434C, A140C-S149C, T365I
Protocol: as §1, §2

hMPV084 = target: T11, hMPV084 (hMPV A, UniProt Q6WB98 19-102); test: BLI, 58C stress
T11 construct: T411C-Q434C, L141C-A161C
Protocol: as §1, §2

hMPV075 = target: T12, hMPV075 (hMPV A, UniProt Q6WB98 19-102); test: BLI, no stress
T12 construct: L473F
Protocol: as §1, §2

hMPV062 = target: T13, hMPV062 (hMPV A, UniProt Q6WB98 19-102); test: BLI, no stress
T13 construct: G121A
Protocol: as §1, §2

hMPV045 = target: T14, hMPV045 (hMPV A, UniProt Q6WB98 19-102); test: BLI, no stress
T14 construct: I137C-A159C
Protocol: as §1, §2

hMPV052 = target: T15, hMPV052 (hMPV A, UniProt Q6WB98 19-102); test: BLI, no stress
T15 construct: L66P
Protocol: as §1, §2

hMPV063 = target: T16, hMPV063 (hMPV A, UniProt Q6WB98 19-102); test: BLI, no stress
T16 construct: G239A
Protocol: as §1, §2

hMPV049 = target: T17, hMPV049 (hMPV A, UniProt Q6WB98 19-102); test: BLI, no stress
T17 construct: E146C-T160C
Protocol: as §1, §2

hMPV071 = target: T18, hMPV071 (hMPV A, UniProt Q6WB98 19-102); test: BLI, no stress
T18 construct: T365I
Protocol: as §1, §2

hMPV043 = target: T19, hMPV043 (hMPV A, UniProt Q6WB98 19-102); test: BLI, no stress
T19 construct: G366C-D454C
Protocol: as §1, §2

hMPV077 = target: T20, hMPV077 (hMPV A, UniProt Q6WB98 19-102); test: BLI, no stress
T20 construct: Q476C, S477C
Protocol: as §1, §2

hMPV068 = target: T21, hMPV068 (hMPV A, UniProt Q6WB98 19-102); test: BLI, no stress
T21 construct: A159V
Protocol: as §1, §2

hMPV053 = target: T22, hMPV053 (hMPV A, UniProt Q6WB98 19-102); test: BLI, no stress
T22 construct: L110P
Protocol: as §1, §2

hMPV058 = target: T23, hMPV058 (hMPV A, UniProt Q6WB98 19-102); test: BLI, no stress
T23 construct: L187P
Protocol: as §1, §2

hMPV061 = target: T24, hMPV061 (hMPV A, UniProt Q6WB98 19-102); test: BLI, no stress
T24 construct: G106A
Protocol: as §1, §2

hMPV059 = target: T25, hMPV059 (hMPV A, UniProt Q6WB98 19-102); test: BLI, no stress
T25 construct: V449P
Protocol: as §1, §2

hMPV047 = target: T26, hMPV047 (hMPV A, UniProt Q6WB98 19-102); test: BLI, no stress
T26 construct: L141C-A159C
Protocol: as §1, §2

hMPV055 = target: T27, hMPV055 (hMPV A, UniProt Q6WB98 19-102); test: BLI, no stress
T27 construct: N145P
Protocol: as §1, §2

hMPV066 = target: T28, hMPV066 (hMPV A, UniProt Q6WB98 19-102); test: BLI, no stress
T28 construct: T49I
Protocol: as §1, §2

hMPV067 = target: T29, hMPV067 (hMPV A, UniProt Q6WB98 19-102); test: BLI, no stress
T29 construct: S149T
Protocol: as §1, §2

hMPV A F WT Control [2] = target: T6, hMPV A F WT Control; test: BLI, no stress
Protocol: as §1, §2

hMPV044 = target: T30, hMPV044 (hMPV A, UniProt Q6WB98 19-102); test: BLI, no stress
T30 construct: T411C-Q434C
Protocol: as §1, §2

hMPV060 = target: T31, hMPV060 (hMPV A, UniProt Q6WB98 19-102); test: BLI, no stress
T31 construct: A459P
Protocol: as §1, §2

hMPV054 = target: T32, hMPV054 (hMPV A, UniProt Q6WB98 19-102); test: BLI, no stress
T32 construct: S132P
Protocol: as §1, §2

hMPV069 = target: T33, hMPV069 (hMPV A, UniProt Q6WB98 19-102); test: BLI, no stress
T33 construct: S291I
Protocol: as §1, §2

B1: hMPV-2 mAb (antibody, V domains shown)
VH: QVQLQQSGAEVKKPGASVKVSCKASGYTFTSYGISWVRQAPGQGLEWMGWISGYNGNTNYAQTFQGTFTMTTDTSTSTAYMELRRLRSGDTAVYYCARDRYYASGSYNGMDVWGQGTTVTVSS
VL: QSALTQPPSASGAPGQRVTVSCSGSSSNVGSSSVYWYQQLPGTAPKLLIYRNNQRPSGVPDRFSGSKSGTSASLAISGLRSEDEADYYCAAWDDSLSGWVFGGGTKLTVLG
notes: human IgG1
hMPV097
  Response Shift: 0.905 nm
hMPV086
  Response Shift: 0.735 nm
hMPV082
  Response Shift: 0.804 nm
hMPV087
  Response Shift: 0.763 nm
hMPV078
  Response Shift: 0.769 nm
hMPV A F WT Control [1]
  Response Shift: 0.015 nm
hMPV083
  Response Shift: 0.822 nm
hMPV090
  Response Shift: 0.77 nm
hMPV085
  Response Shift: 0.076 nm
hMPV081
  Response Shift: 0.804 nm
hMPV084
  Response Shift: 0.183 nm
hMPV075
  Response Shift: 0.802 nm
hMPV062
  Response Shift: 0.774 nm
hMPV045
  Response Shift: 0.582 nm
hMPV052
  Response Shift: 0.739 nm
hMPV063
  Response Shift: 0.854 nm
hMPV049
  Response Shift: 0.7 nm
hMPV071
  Response Shift: 0.76 nm
hMPV043
  Response Shift: 0.636 nm
hMPV077
  Response Shift: 0.751 nm
hMPV068
  Response Shift: 0.783 nm
hMPV053
  Response Shift: 0.717 nm
hMPV058
  Response Shift: 0.709 nm
hMPV061
  Response Shift: 0.73 nm
hMPV059
  Response Shift: 0.719 nm
hMPV047
  Response Shift: 0.268 nm
hMPV055
  Response Shift: 0.627 nm
hMPV066
  Response Shift: 0.767 nm
hMPV067
  Response Shift: 0.677 nm
hMPV A F WT Control [2]
  Response Shift: 0.782 nm
hMPV044
  Response Shift: 0.797 nm
hMPV060
  Response Shift: 0.769 nm
hMPV054
  Response Shift: 0.682 nm
hMPV069
  Response Shift: 0.747 nm
